T1: mouse LRP6 ECD, Fc-tagged (mouse, UniProt O88572 20-1370)
T1 construct: extracellular domain; Bought; not shown: Fc tag of the purchased fusion
T1 sequence (looked up): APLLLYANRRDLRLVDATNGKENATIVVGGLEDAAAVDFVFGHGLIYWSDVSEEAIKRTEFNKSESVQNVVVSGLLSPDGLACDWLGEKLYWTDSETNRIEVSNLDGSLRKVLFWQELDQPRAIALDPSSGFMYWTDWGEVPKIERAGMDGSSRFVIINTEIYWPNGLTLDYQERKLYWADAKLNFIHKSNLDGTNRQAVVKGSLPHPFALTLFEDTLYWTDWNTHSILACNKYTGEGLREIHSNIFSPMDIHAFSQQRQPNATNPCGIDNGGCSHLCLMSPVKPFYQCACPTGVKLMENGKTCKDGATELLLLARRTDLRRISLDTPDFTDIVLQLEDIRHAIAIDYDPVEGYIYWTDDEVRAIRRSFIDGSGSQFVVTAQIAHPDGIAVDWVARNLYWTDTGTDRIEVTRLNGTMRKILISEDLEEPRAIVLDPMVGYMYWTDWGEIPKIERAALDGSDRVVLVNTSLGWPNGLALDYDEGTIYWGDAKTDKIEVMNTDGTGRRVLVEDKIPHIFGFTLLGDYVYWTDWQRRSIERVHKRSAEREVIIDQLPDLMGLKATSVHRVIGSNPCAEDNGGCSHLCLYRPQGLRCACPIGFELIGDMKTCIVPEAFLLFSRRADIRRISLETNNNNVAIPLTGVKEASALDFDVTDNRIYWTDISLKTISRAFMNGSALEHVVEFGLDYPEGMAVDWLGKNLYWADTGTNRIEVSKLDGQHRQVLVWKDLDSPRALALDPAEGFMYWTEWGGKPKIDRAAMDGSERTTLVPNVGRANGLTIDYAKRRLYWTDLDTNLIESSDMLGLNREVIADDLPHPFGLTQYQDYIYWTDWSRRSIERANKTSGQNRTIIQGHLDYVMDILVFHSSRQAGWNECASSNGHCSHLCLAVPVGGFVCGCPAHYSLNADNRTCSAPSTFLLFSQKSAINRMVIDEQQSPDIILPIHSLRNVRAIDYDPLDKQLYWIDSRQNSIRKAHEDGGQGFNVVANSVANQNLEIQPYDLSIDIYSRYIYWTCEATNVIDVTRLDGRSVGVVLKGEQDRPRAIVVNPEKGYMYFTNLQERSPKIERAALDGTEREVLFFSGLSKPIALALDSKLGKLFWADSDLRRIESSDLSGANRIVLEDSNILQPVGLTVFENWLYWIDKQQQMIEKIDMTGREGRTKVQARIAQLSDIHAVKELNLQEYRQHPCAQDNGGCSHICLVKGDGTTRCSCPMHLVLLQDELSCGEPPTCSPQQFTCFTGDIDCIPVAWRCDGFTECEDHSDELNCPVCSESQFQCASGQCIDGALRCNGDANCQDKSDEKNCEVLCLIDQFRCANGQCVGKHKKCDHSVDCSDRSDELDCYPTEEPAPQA

T2: mouse LRP5 ECD, Fc-tagged (mouse, UniProt Q91VN0 31-1383)
T2 construct: extracellular domain; Bought; not shown: Fc tag of the purchased fusion
T2 sequence (looked up): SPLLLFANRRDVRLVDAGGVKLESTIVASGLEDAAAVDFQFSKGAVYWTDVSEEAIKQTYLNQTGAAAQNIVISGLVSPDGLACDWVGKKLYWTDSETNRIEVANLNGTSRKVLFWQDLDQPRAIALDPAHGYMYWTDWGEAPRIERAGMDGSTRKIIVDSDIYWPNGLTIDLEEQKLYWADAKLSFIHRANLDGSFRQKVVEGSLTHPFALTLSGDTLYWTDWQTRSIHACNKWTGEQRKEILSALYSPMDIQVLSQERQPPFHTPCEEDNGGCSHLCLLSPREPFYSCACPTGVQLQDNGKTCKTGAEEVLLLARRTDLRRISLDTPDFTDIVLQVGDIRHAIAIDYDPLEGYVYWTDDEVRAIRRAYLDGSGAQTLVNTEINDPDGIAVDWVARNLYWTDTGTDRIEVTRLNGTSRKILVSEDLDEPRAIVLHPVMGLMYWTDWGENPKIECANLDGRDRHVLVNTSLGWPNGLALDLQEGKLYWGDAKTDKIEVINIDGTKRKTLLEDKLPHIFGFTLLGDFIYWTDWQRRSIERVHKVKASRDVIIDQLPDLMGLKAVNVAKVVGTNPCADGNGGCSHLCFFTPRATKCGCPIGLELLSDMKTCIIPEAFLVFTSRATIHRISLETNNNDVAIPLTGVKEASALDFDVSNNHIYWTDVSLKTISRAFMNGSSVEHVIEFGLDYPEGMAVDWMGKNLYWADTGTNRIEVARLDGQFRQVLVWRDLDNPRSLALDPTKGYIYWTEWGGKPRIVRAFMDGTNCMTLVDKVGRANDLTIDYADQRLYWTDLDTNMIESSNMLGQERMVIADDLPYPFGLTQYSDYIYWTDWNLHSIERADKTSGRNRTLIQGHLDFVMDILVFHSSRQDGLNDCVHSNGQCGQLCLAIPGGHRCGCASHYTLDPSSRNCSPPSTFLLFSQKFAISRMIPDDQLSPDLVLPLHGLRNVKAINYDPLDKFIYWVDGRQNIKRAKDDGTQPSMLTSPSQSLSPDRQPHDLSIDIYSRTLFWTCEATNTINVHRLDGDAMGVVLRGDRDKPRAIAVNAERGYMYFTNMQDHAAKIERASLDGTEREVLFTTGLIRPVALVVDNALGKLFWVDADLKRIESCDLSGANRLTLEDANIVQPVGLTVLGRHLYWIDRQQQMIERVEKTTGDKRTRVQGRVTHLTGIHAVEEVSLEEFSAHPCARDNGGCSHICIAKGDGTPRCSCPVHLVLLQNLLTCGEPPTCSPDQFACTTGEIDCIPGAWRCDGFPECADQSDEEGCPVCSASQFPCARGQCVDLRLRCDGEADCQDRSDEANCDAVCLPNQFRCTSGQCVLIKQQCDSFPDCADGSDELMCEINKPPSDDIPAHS

T3: FZD5 CRD, Fc-tagged (human, UniProt Q13467 27-167)
T3 construct: domain: CRD; Bought; also called FZD5 ECD; not shown: Fc tag of the purchased fusion
T3 sequence (looked up): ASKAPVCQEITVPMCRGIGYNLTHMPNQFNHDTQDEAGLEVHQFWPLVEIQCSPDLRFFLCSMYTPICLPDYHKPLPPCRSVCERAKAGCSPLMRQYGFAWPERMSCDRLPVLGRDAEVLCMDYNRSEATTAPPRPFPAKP

T4: FZD8 CRD, Fc-tagged (human, UniProt Q9H461 28-158)
T4 construct: domain: CRD; Bought; not shown: Fc tag of the purchased fusion
T4 sequence (looked up): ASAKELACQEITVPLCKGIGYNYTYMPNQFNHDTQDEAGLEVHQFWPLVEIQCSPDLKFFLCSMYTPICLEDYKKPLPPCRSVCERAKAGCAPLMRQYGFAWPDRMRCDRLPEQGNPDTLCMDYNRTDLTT


Experiments:
85BSA = biological target: T5, 85BSA (Bos taurus, UniProt P02769); experiment: ELISA of the IgG on hLRP6, mLRP6, mLRP5, Fc and BSA
T5 construct: also called bovine serum albumin

[1] = biological target: T1, mouse LRP6 ECD, Fc-tagged; experiment: as above
[2] = biological target: T2, mouse LRP5 ECD, Fc-tagged; experiment: as above
FZD5 CRD, Fc-tagged = biological target: T3, FZD5 CRD, Fc-tagged; experiment: kinetic table of the Fab; KD marked '**…'; the printed KD is not kd/ka of the same column; method not named for this figure
FZD8 CRD, Fc-tagged = biological target: T4, FZD8 CRD, Fc-tagged; experiment: as above
FZD2 CRD, Fc-tagged = biological target: T6, FZD2 CRD, Fc-tagged (human, UniProt Q14332 24-190); experiment: as above
T6 construct: domain: CRD; Bought; not shown: Fc tag of the purchased fusion

FZD7 CRD, Fc-tagged = FZD7 CRD, Fc-tagged (human, UniProt O75084 33-185); experiment: as above
FZD1 CRD, Fc-tagged = biological target: T7, FZD1 CRD, Fc-tagged (human, UniProt Q9UP38 70-250); experiment: as above
T7 construct: domain: CRD; Bought; not shown: Fc tag of the purchased fusion
T7 sequence (Q9UP38 70-250): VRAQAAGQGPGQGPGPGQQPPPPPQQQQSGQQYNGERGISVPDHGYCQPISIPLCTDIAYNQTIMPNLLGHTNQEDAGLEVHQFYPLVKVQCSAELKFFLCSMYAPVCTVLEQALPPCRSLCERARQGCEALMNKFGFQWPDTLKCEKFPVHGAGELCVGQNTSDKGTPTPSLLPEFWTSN

T5 sequence (P02769 25-607 limits assumed): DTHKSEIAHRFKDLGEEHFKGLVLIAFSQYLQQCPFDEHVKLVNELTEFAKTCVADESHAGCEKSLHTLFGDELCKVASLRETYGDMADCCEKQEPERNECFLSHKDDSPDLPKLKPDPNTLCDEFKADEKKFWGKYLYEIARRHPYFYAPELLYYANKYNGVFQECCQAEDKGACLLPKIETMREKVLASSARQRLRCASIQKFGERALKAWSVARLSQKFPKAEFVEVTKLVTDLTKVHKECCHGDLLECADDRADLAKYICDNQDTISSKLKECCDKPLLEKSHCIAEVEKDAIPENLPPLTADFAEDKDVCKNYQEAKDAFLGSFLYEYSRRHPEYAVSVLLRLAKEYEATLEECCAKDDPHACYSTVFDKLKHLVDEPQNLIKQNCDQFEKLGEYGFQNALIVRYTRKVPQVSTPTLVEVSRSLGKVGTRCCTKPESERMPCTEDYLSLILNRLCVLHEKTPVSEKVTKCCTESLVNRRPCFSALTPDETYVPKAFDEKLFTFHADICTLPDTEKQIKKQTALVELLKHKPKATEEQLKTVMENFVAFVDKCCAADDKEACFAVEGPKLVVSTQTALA

Row | binding result (85BSA) | binding result [1] | binding result [2] | Kd (FZD5 CRD, Fc-tagged) [nM] | Kd (FZD8 CRD, Fc-tagged) [nM] | Kd (FZD2 CRD, Fc-tagged) [nM] | Kd (FZD7 CRD, Fc-tagged) [nM] | Kd (FZD1 CRD, Fc-tagged) [nM] | Binder
1 | no binding | binds | no binding | – | – | – | – | – | LRP6 antibody 2539 (antibody, V domains shown, also called L6^3) VH: EVQLVESGGGLVQPGGSLRLSCAASGFNISYSSIHWVRQAPGKGLEWVAYISSYYGYTYYADSVKGRFTISADTSKNTAYLQMNSLRAEDTAVYYCARAHYFPWAGAMDYWGQGTLVTVSS VL: DIQMTQSPSSLSASVGDRVTITCRASQSVSSAVAWYQQKPGKAPKLLIYSASSLYSGVPSRFSGSRSGTDFTLTISSLQPEDFATYYCQQYSWGPFTFGQGTKVEIK
2 | no binding | binds | no binding | – | – | – | – | – | LRP6 antibody 2542 (antibody, V domains shown) VH: EVQLVESGGGLVQPGGSLRLSCAASGFNISSYYIHWVRQAPGKGLEWVASIYSSYGYTSYADSVKGRFTISADTSKNTAYLQMNSLRAEDTAVYYCARTVRGSKKPYFSGWAMDYWGQGTLVTVSS VL: DIQMTQSPSSLSASVGDRVTITCRASQSVSSAVAWYQQKPGKAPKLLIYSASSLYSGVPSRFSGSRSGTDFTLTISSLQPEDFATYYCQQYYWPITFGQGTKVEIK
3 | – | – | – | 0.11 | 0.109 | 0.126 | 0.142 | 0.177 | F^P - Fab (Fab, V domains shown) VH: EVQLVESGGGLVQPGGSLRLSCAASGFNIGSSSIHWVRQAPGKGLEWVASIYSAFASTSYADSVKGRFTISADTSKNTAYLQMNSLRAEDTAVYYCARYHFPFGFALDYWGQGTLVTVSS VL: DIQMTQSPSSLSASVGDRVTITCRASQSVSSAVAWYQQKPGKAPKLLIYSASSLYSGVPSRFSGSRSGTDFTLTISSLQPEDFATYYCQQGVYLFTFGQGTKVEIK

Source: patent publication US20210032352A1 (ANTERA THERAPEUTICS, published 2021)
